Experimental data taken from publication PMC11040377, “Lymphocyte‐Activation Gene 3 Facilitates Pathological Tau Neuron‐to‐Neuron Transmission” (Advanced Science, 2024).

B1: Lag3 (lymphocyte-activation gene 3), on transfected SH-SY5Y cells (receptor, UniProt Q61790 24-521, looked up)
chain: GPGKELPVVWAQEGAPVHLPCSLKSPNLDPNFLRRGGVIWQHQPDSGQPTPIPALDLHQGMPSPRQPAPGRYTVLSVAPGGLRSGRQPLHPHVQLEERGLQRGDFSLWLRPALRTDAGEYHATVRLPNRALSCSLRLRVGQASMIASPSGVLKLSDWVLLNCSFSRPDRPVSVHWFQGQNRVPVYNSPRHFLAETFLLLPQVSPLDSGTWGCVLTYRDGFNVSITYNLKVLGLEPVAPLTVYAAEGSRVELPCHLPPGVGTPSLLIAKWTPPGGGPELPVAGKSGNFTLHLEAVGLAQAGTYTCSIHLQGQQLNATVTLAVITVTPKSFGLPGSRGKLLCEVTPASGKERFVWRPLNNLSRSCPGPVLEIQEARLLAERWQCQLYEGQRLLGATVYAAESSSGAHSARRISGDLKGGHLVLVLILGALSLFLLVAGAFGFHWWRKQLLLRRFSALEHGIQPFPAQRKIEELERELETEMGQEPEPEPEPQLEPEPRQL
notes: also called FL; Lag3-expressing SH-SY5Y cells; source: SH-SY5Y cells, transiently transfected (Lipofectamine 2000), on cells
B2: human recombinant LAG3 (receptor)
chain: LQPGAEVPVVWAQEGAPAQLPCSPTIPLQDLSLLRRAGVTWQHQPDSGPPAAAPGHPLAPGPHPAAPSSWGPRPRRYTVLSVGPGGLRSGRLPLQPRVQLDERGRQRGDFSLWLRPARRADAGEYRAAVHLRDRALSCRLRLRLGQASMTASPPGSLRASDWVILNCSFSRPDRPASVHWFRNRGQGRVPVRESPHHHLAESFLFLPQVSPMDSGPWGCILTYRDGFNVSIMYNLTVLGLEPPTPLTVYAGAGSRVGLPCRLPAGVGTRSFLTAKWTPPGGGPDLLVTGDNGDFTLRLEDVSQAQAGTYTCHIHLQEQQLNATVTLAIITVTPKSFGSPGSLGKLLCEVTPVSGQERFVWSSLDTPSQRSFSGPWLEAQEAQLLSQPWQCQLYQGERLLGAAVYFTELSSPGAQRSGRAPGALPAGHL

Legend:
[1] = target: Tau oligomers (globular, 30% sucrose fraction), biotin-labelled (human, biotin); assay: cell surface binding assay (streptavidin-alkaline phosphatase staining); SH-SY5Y cells transfected with Lag3 or its deletion mutants; biotin-labelled ligand at different concentrations (monomer equivalent) in DMEM with 10% FBS, 2 h at RT; washed, fixed, bound biotin detected with streptavidin-AP and BCIP/NBT; intensity by ImageJ, KD by GraphPad Prism; details: one partner purified
amyloid-β (Aβ) PFF = assay: as above; details: one partner purified
[2] = target: T1, Tau-biotin PFF (AD-Tau-induced Tau preformed fibrils, biotin-labelled) (human, UniProt P10636-8 1-441, biotin (Sulfo-NHS-LC-Biotin)); assay: ELISA; Tau-biotin PFF and human recombinant LAG3; format not described in the text shown; details: both partners purified
T1 construct: Tau, human, WT isoform T40 (2N4R), 441 amino acid residues; Fibrillar assembly of many Tau chains; concentrations are monomer equivalents; also called Tau PFF; AD-Tau-induced Tau PFF-biotin; source: E. coli BL21(DE3), purified (HiTrap SP HP); fibrillised with AD-Tau seeds from AD brains, sonicated
T1 sequence (P10636 other isoform, or with tags, fused parts or gaps): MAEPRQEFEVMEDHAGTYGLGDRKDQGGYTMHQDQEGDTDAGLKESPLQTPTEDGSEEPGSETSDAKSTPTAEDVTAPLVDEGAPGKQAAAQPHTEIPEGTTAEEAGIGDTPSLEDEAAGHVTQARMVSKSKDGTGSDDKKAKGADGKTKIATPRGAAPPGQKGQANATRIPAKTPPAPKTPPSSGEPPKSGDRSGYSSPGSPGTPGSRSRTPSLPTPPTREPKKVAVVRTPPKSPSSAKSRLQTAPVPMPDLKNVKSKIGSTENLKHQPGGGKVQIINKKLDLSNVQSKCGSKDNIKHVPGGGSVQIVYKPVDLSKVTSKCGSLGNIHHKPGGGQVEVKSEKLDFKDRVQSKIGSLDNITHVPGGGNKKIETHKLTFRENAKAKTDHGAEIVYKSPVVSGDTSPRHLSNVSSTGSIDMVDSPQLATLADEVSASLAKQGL

Row | Binder | Kd [1] [nM] | Kd (amyloid-β (Aβ) PFF) [nM] | Kd [2] [nM]
1 | B1 | 1300 | 310 | –
2 | B2 | – | – | 3
